The series deals with the molecule itself. As to the kind of experiment: SEC; CDCs formed from a 2:1 mixture of MuA protein and Mu end DNA at 30°C for ≥1 hr; 25 mM HEPES pH 7.4, 200 mM NaCl, 5% glycerol, 0.6 mM Zwittergent 3-12, 0.5 mM EDTA, no Mg2+; Superdex 200 Increase 10/300; tetramer peak collected. A general note: In gel filtration, larger molecules generally elute earlier.

A word on the stoichiometry N: it is the number of molecules, sites or subunits per partner or assembly.

B1: MuA transposase lacking domain Iα (residues 1–76) (enzyme)
chain: not shown
notes: MuA transposase of bacteriophage Mu; all constructs lacked domain Iα (residues 1-76); domain IIIβ (the C-terminal ~60 residues) is included; In the assay it stood with Mu end DNA fragments as the cleaved-donor complex (CDC); The crystal structure PDB 4FCY holds a shorter construct without domain IIIβ; also called MuA protein; WT
On to B1, for which the “stoichiometry N” value was 4.
